According to publication PMC5310649 (Biochemistry, 2016):

Target: the molecule itself
Experiment: thin section electron microscopy

B1: FtsZ-mVenus (FtsZ with the YFP variant mVenus fused to the C terminus) (natural protein, E. coli, UniProt P0A9A6 1-383, looked up)
chain: MFEPMELTNDAVIKVIGVGGGGGNAVEHMVRERIEGVEFFAVNTDAQALRKTAVGQTIQIGSGITKGLGAGANPEVGRNAADEDRDALRAALEGADMVFIAAGMGGGTGTGAAPVVAEVAKDLGILTVAVVTKPFNFEGKKRMAFAEQGITELSKHVDSLITIPNDKLLKVLGRGISLLDAFGAANDVLKGAVQGIAELITRPGLMNVDFADVRTVMSEMGYAMMGSGVASGEDRAEEAAEMAISSPLLEDIDLSGARGVLVNITAGFDLRLDEFETVGNTIRAFASDNATVVIGTSLDPDMNDELRVTVVATGIGMDKRPEITLVTNKQVQQPVMDRYQQHGMAPLTQEQKPVAKVVNDNAPQTAKEPDYLDIPAFLRKQAD
- binding result: binds
